For one series, the target named is p50-NTD (mouse, UniProt P25799 39-245). The experiment in a line: NMR.
The next series addresses p50-RHR homodimer (mouse, UniProt P25799 39-363). The experiment in a line: NMR.

Sequence of p50-NTD (P25799 39-245): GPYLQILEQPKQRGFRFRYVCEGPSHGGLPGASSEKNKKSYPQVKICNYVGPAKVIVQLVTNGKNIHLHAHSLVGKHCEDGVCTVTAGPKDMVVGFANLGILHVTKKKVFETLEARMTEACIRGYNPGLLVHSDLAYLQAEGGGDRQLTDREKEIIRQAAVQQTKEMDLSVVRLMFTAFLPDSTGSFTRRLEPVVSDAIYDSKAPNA
Sequence of p50-RHR homodimer (P25799 39-363): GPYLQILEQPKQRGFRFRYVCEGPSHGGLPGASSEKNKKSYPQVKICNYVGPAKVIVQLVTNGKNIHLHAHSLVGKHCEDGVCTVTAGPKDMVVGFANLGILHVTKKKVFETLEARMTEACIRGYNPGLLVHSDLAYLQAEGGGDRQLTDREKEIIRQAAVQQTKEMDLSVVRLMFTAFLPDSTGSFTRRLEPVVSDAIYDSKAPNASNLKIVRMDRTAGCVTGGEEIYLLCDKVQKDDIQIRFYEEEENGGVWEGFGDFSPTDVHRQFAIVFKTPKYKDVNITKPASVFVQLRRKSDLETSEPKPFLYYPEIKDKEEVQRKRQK

B1: half-kB (18-mer) (dsDNA)
DNA 1: TTCGGGAAATAGAAACTC
DNA 2: GAGTTTCTATTTCCCGAA
Turning to B1, the binding result with p50-NTD is listed as “binds”.

B2: half-kBL (21-mer) (dsDNA)
DNA 1: CTTCGGGAAATAGAAACTCTC
DNA 2: GAGAGTTTCTATTTCCCGAAG
As for B2, the binding result with p50-NTD is listed as “binds”.

B3: full-kB (14-mer) (dsDNA)
DNA 1: TCGGGAATTCCCGA
DNA 2: TCGGGAATTCCCGA
For the molecule B3, the binding result in the series with p50-RHR homodimer and in the series with p50-NTD was “binds” each time.
